Results as given in patent publication US12097241B2, “Methods of treating kidney failure, and/or improving or stablizing renal function using modified relaxin polypeptides” (BRISTOL-MYERS SQUIBB COMPANY, priority 2017, dated 2024).
Like-named read-outs stand apart in the source and are kept apart here.

How the values were obtained:
human RXFP1 receptor = target: T1, human RXFP1 receptor (Homo sapiens, UniProt Q9HBX9); assay: Intracellular cAMP accumulation assay; assay type: cell-based
T1 construct: expressed in transfected cells
T1 sequence (Q9HBX9 1-757): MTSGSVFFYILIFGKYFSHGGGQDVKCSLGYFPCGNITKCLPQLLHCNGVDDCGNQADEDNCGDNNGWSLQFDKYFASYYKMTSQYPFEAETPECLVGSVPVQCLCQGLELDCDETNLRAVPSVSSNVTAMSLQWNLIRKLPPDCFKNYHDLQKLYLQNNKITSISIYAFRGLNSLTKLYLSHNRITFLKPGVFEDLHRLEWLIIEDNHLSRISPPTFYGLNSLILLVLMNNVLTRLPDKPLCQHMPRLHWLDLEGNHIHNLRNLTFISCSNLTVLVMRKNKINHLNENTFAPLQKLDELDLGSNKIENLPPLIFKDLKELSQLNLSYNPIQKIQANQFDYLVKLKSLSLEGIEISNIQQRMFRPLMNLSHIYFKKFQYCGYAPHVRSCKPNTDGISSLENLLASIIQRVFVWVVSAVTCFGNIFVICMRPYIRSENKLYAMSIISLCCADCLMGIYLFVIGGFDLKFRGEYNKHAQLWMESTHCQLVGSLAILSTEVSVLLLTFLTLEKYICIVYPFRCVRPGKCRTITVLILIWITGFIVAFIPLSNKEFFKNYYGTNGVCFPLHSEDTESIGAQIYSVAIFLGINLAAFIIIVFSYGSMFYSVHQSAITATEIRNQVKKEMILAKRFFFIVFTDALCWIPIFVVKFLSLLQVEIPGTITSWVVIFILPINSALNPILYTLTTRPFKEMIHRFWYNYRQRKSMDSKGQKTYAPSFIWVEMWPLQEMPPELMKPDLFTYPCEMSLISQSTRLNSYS
Method: The intracellular cAMP accumulation assay described herein was used to assess relaxin bioactivity and potency.
CHO-K1 cells (ATCC; Cat. #CRL-9618) stably expressing the human RXFP1 receptor (locus number LOC59350) (10,000/well) were plated into 96-well plates and cultured overnight at 37° C. and 5% CO2. On the following day, the medium was removed from the wells and the cells were stimulated with the addition of ligand (relaxin polypeptide) in 50 uL buffer (1×HBSS, 5 mM HEPES (7.2), 0.5 mM IBMX, 0.1% BSA); incubation was for 10 min at 37° C. Unstimulated cells were utilized as reference controls. Reactions were terminated and cellular cAMP levels were measured using the Homogeneous Time Resolved Fluorescence (HTRF) Dynamic 2 cAMP kit (CisBio, #62AM4PEC) according to the manufacturer's protocol. Plates were analyzed using an EnVision 2104 Multilablel Reader (PerkinElmer). Signal was expressed in terms of the ratio of fluorescence intensity @ 665 nm/fluorescence intensity @620 nm×10,000. The concentration of cAMP in the sample was determined by comparison with standard curves generated from known concentrations of cAMP. The potency of each relaxin was determined using a ten-point concentration response curves which was performed in duplicate. The data were analyzed using Microsoft Excel, Version 2013 Xlfit software. Effective concentration 50 (EC50) values, the point at which the response was one-half maximal, were calculated using a four-parameter logistic equation that allowed for a variable-slope (Table 3).

[1] = In vivo pharmacokinetic (PK) studies in rats; set-up: species or system Sprague-Dawley rats; conditions: rat; for AUC(0-inf): read-out: Rat PK AUC Total; for level at time molar at 24 h: read-out: Rat PK C24
In short: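 Male Sprague-Dawley rats (n=3) given a single 1 mg/kg IV or SC dose of relaxin constructs in 20 mM histidine, 750 mM NaCl, pH 6.0; jugular serum sampled to 72 h. Serum relaxin by ELISA; Cmax, AUCinf, C24 and half-life from non-compartmental analysis of individual profiles.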

[2] = CHO-K1 cells stably expressing human RXFP1, 10 min at 37° C., HTRF cAMP, average, read-out: hRXFP1/CHO-K1 cAMP EC50 (nM, avg)
[3] = male Sprague-Dawley rats, single SC dose 1.0 mg/kg, serum ELISA
[4] = male, Sprague-Dawley, serum, rats, SC dose 0.8 mg/kg

SMILES	EC50 (human RXFP1 receptor; [2])	AUC(0-inf) [1, 3]	level at time molar at 24 h [1, 3]	AUC(0-inf) [1, 4]	level at time molar at 24 h [1, 4]	EC50 (human RXFP1 receptor)
CC[C@H](C)[C@@H]1NC(=O)[C@H](C)NC(=O)[C@H]([C@@H](C)CC)NC(=O)[C@H](CCC(N)=O)NC(=O)[C@H](C)NC(=O)[C@H](CCCNC(=N)N)NC(=O)[C@H](C(C)C)NC(=O)[C@H](CC(C)C)NC(=O)[C@H](CCC(=O)O)NC(=O)[C@H](CCCNC(=N)N)NC(=O)CNC(=O)[C@@H](NC(=O)[C@H](CC(C)C)NC(=O)[C@H](CCCCN)NC(=O)[C@@H](NC(=O)[C@@H](NC(=O)[C@H](CCC(=O)O)NC(=O)[C@H](CCC(=O)O)NC(=O)[C@H](CCSC)NC(=O)[C@H](Cc2c[nH]c3ccccc23)NC(=O)[C@H](CO)NC(=O)[C@H](C)N)C(C)C)[C@@H](C)CC)CSSC[C@@H]2NC(=O)[C@@H](NC(=O)[C@H](CCCCN)NC(=O)[C@H](CC(N)=O)NC(=O)[C@H](C)NC(=O)[C@H](CC(C)C)NC(=O)[C@H](C)NC(=O)[C@H](CO)NC(=O)[C@H](Cc3ccc(O)cc3)NC(=O)[C@H](CC(C)C)NC(=O)[C@@H](N)Cc3ccc(C(C)=NOCCNC(=O)[C@H](CCCNC(=N)N)NC(=O)CNC(=O)CNC(=O)[C@H](CCC(=O)O)NC(=O)[C@H](CCC(=O)O)NC(=O)[C@H](CCCCN)NC(=O)[C@H](CCCCN)NC(=O)[C@H](CCCCN)NC(=O)[C@H](CCC(=O)O)NC(=O)[C@H](CCCCN)NC(=O)[C@H](CCC(=O)O)NC(=O)[C@H](CCCCN)NC(=O)CC[C@H](NC(=O)CCCCCCCCCCCCC(=O)O)C(=O)O)cc3)CSSC[C@H](NC(=O)CNC(=O)[C@H](C(C)C)NC(=O)[C@H](Cc3c[nH]cn3)NC2=O)C(=O)N[C@@H]([C@@H](C)O)C(=O)N[C@@H](CCCCN)C(=O)N[C@@H](CCCNC(=N)N)C(=O)N[C@@H](CO)C(=O)N[C@@H](CC(C)C)C(=O)N[C@@H](C)C(=O)N[C@@H](CCCNC(=N)N)C(=O)N[C@@H](Cc2ccccc2)C(=O)N[C@H](C(=O)O)CSSC[C@@H](C(=O)NCC(=O)N[C@@H](CCSC)C(=O)N[C@@H](CO)C(=O)N[C@H](C(=O)N[C@@H](Cc2c[nH]c3ccccc23)C(=O)N[C@@H](CO)C(=O)O)[C@@H](C)O)NC1=O [AQ1-RGGEEKKKEKEK-Glu^γ-C13-COOH]	0.29 nM	0.987 µM·h	0.1 nM			
CC[C@H](C)[C@@H]1NC(=O)[C@H](C)NC(=O)[C@H]([C@@H](C)CC)NC(=O)[C@H](CCC(N)=O)NC(=O)[C@H](C)NC(=O)[C@H](CCCNC(=N)N)NC(=O)[C@H](C(C)C)NC(=O)[C@H](CC(C)C)NC(=O)[C@H](CCC(=O)O)NC(=O)[C@H](CCCNC(=N)N)NC(=O)CNC(=O)[C@@H](NC(=O)[C@H](CC(C)C)NC(=O)[C@H](CCCCN)NC(=O)[C@@H](NC(=O)[C@@H](NC(=O)[C@H](CCC(=O)O)NC(=O)[C@H](CCC(=O)O)NC(=O)[C@H](CCSC)NC(=O)[C@H](Cc2c[nH]c3ccccc23)NC(=O)[C@H](CO)NC(=O)[C@H](C)N)C(C)C)[C@@H](C)CC)CSSC[C@@H]2NC(=O)[C@@H](NC(=O)[C@H](CCCCN)NC(=O)[C@H](CC(N)=O)NC(=O)[C@H](C)NC(=O)[C@H](CC(C)C)NC(=O)[C@H](C)NC(=O)[C@H](CO)NC(=O)[C@H](Cc3ccc(O)cc3)NC(=O)[C@H](CC(C)C)NC(=O)[C@@H](N)Cc3ccc(C(C)=NOCCNC(=O)CNC(=O)CNC(=O)CNC(=O)CNC(=O)[C@H](CO)NC(=O)CC[C@H](NC(=O)CCCCCCCCCCCCC(=O)O)C(=O)O)cc3)CSSC[C@H](NC(=O)CNC(=O)[C@H](C(C)C)NC(=O)[C@H](Cc3c[nH]cn3)NC2=O)C(=O)N[C@@H]([C@@H](C)O)C(=O)N[C@@H](CCCCN)C(=O)N[C@@H](CCCNC(=N)N)C(=O)N[C@@H](CO)C(=O)N[C@@H](CC(C)C)C(=O)N[C@@H](C)C(=O)N[C@@H](CCCNC(=N)N)C(=O)N[C@@H](Cc2ccccc2)C(=O)N[C@H](C(=O)O)CSSC[C@@H](C(=O)NCC(=O)N[C@@H](CCSC)C(=O)N[C@@H](CO)C(=O)N[C@H](C(=O)N[C@@H](Cc2c[nH]c3ccccc23)C(=O)N[C@@H](CO)C(=O)O)[C@@H](C)O)NC1=O [AQ1-GGGGS-Glu^γ-C13-COOH]	0.14 nM			1.1 µM·h	1.52 nM	
CC[C@H](C)[C@@H]1NC(=O)[C@H](C)NC(=O)[C@H]([C@@H](C)CC)NC(=O)[C@H](CCC(N)=O)NC(=O)[C@H](C)NC(=O)[C@H](CCCNC(=N)N)NC(=O)[C@H](C(C)C)NC(=O)[C@H](CC(C)C)NC(=O)[C@H](CCC(=O)O)NC(=O)[C@H](CCCNC(=N)N)NC(=O)CNC(=O)[C@@H](NC(=O)[C@H](CC(C)C)NC(=O)[C@H](CCCCN)NC(=O)[C@@H](NC(=O)[C@@H](NC(=O)[C@H](CCC(=O)O)NC(=O)[C@H](CCC(=O)O)NC(=O)[C@H](CCSC)NC(=O)[C@H](Cc2c[nH]c3ccccc23)NC(=O)[C@H](CO)NC(=O)[C@H](C)N)C(C)C)[C@@H](C)CC)CSSC[C@@H]2NC(=O)[C@@H](NC(=O)[C@H](CCCCN)NC(=O)[C@H](CC(N)=O)NC(=O)[C@H](C)NC(=O)[C@H](CC(C)C)NC(=O)[C@H](C)NC(=O)[C@H](CO)NC(=O)[C@H](Cc3ccc(O)cc3)NC(=O)[C@H](CC(C)C)NC(=O)[C@@H](N)Cc3ccc(/C(C)=N/OCCNC(=O)CNC(=O)[C@H](CO)NC(=O)[C@@H]4CCCN4C(=O)CNC(=O)[C@H](CO)NC(=O)[C@@H]4CCCN4C(=O)CC[C@H](NC(=O)CCCCCCCCCCCCCC(=O)O)C(=O)O)cc3)CSSC[C@H](NC(=O)CNC(=O)[C@H](C(C)C)NC(=O)[C@H](Cc3c[nH]cn3)NC2=O)C(=O)N[C@@H]([C@@H](C)O)C(=O)N[C@@H](CCCCN)C(=O)N[C@@H](CCCNC(=N)N)C(=O)N[C@@H](CO)C(=O)N[C@@H](CC(C)C)C(=O)N[C@@H](C)C(=O)N[C@@H](CCCNC(=N)N)C(=O)N[C@@H](Cc2ccccc2)C(=O)N[C@H](C(=O)O)CSSC[C@@H](C(=O)NCC(=O)N[C@@H](CCSC)C(=O)N[C@@H](CO)C(=O)N[C@H](C(=O)N[C@@H](Cc2c[nH]c3ccccc23)C(=O)N[C@@H](CO)C(=O)O)[C@@H](C)O)NC1=O [AQ1-GSPGSP-Glu^γ-C14-COOH]		1.98 µM·h	5 nM			0.29 nM
